For test [1], the system named is PDGF-R β. Briefly: Competitive binding with 125I-PDGF BB on transfectant cells expressing PDGF-R β. The arrangement: species or system human. The following applies: 4° C. The procedure:
To determine the ability of muM4TS.11 and muM4TS.22 to block binding of PDGF BB to PDGF-R β, the following competitive binding experiments were performed. Transfectant cells expressing PDGF-R β were harvested, washed twice with cold DMEM, and resuspended at 10^6 cells/ml in DMEM. The assay was carried out in triplicate by incubating 100 μl of the cell suspension with either: 1) no antibody (to determine total binding); 2) varying concentrations of antibody; or 3) 100 ng cold PDGF BB (to saturate specific binding sites and determine non-specific binding) for 15 minutes at 4° C. Each sample received 1.0 ng ^125 I-labeled PDGF BB, and was incubated for an additional 60 min at 4° C. Unbound ^125 I-labeled PDGF BB was separated from that bound to the cell by layering the sample over a mixture of 80% dibutylphthalate, 20% olive oil in a microfuge tube, and microfuging briefly to pellet the cells through the oil mixture. The tubes were placed in dry ice to freeze the contents, the tip of the tube containing the cell pellet was cut off into a vial, and radioactivity was determined in a gamma counter.
To assess the ability of HuM4TS.22 to block the binding of PDGF BB to its receptor, competitive binding experiments of HuM4TS.22 with ^125 I-PDGF BB were performed according to the method described in Example 3.
To assess the ability of muM4TS.11 and HuM4TS.11 to block the binding of PDGF BB to the PDGF β receptor, competitive binding experiments of these antibodies with ^125 I-PDGF BB were performed according to the method described in Example 3.

Test [2] deals with PDGF-R β deletion fusion proteins. Briefly: ELISA epitope mapping with PDGF-R β deletion fusion proteins. The format is binding, human. An excerpt: To localize the binding sites of the M4TS antibodies on the PDGF-R, a series of PDGF-R β deletion mutants, each consisting of one or more adjacent domains of the extracellular portion of the receptor, was constructed by standard methods including PCR. The deletion constructs were each cloned into an expression plasmid (FIG. 13A) where they were fused to the constant region of the human lambda-1 immunoglobulin light chain, to facilitate detection in ELISA. The constructs were as follows (see FIG. 13B):
These PDGF-R β deletion fusion proteins were transiently expressed, by transfecting 10 μg of the respective expression plasmids into approximately 10^7 S194 mouse myeloma cells (ATCC TIB 19) using the DEAE-dextran method in accordance with the method described by Queen et al. (1984) Mol. Cell. Biol. 4:1042. After the transfected cells had died (4-5 days) and been removed by centrifugation, the culture supernatants containing the PDGF-R β deletion proteins were used in ELISA assays, 100 μl/well. First, the relative levels of the various PDGF-R β deletion proteins were measured in an ELISA where the plate was coated with goat anti-human lambda antibody (Tago) and the proteins detected with HRP-conjugated goat anti-human lambda antibody. […] To determine the ability of the antibodies to bind to each deletion protein, an ELISA was performed in which goat anti-human lambda antibody was used to coat the plate, followed by the cell supernatant and then 0.1 μg of the appropriate antibody, and then bound antibody detected with HRP-conjugated goat-anti-mouse Ig or goat-anti-human Ig antibody as appropriate (Tago). As a positive control, purified soluble PDGF-R β (Example 1) was coated directly on certain wells of the plate (denoted D1-5 in FIG. 14).
For orientation: In an ELISA, binding on a coated surface is turned into a signal by an enzyme label.

Test [3] deals with Rat aortic smooth muscle cells (SMC). Briefly: Inhibition of PDGF BB-mediated proliferation of rat aortic smooth muscle cells. To be noted: PDGF BB 10 ng/ml, 3H-thymidine 19 to 26 hr. It is filed as cell-based. The procedure:
To determine whether muM4TS.11 inhibits PDGF-mediated proliferation of rat cells in vitro, the following experiment was performed. Rat aortic smooth muscle cells (SMC) were plated at a 1:3 split ratio in 10% FCS and made quiescent 24 hours later by changing the medium to 1% control process serum replacement II (Sigma, St. Louis, Mo.). Three to five days later, the cells were stimulated with PDGF BB (10 ng/ml). At the time of stimulation, increasing doses of the specific MAb or mouse IgG (control) were added. Cell proliferation was determined by measuring ^3 H-thymidine incorporated into DNA when the cells were pulsed from 19 to 26 hr after stimulation. MuM4TS.11 inhibited proliferation in a concentration-dependent manner with an IC50 of about 0.5 μg/ml.

“Also recorded” adds a separate entry of the source.

B1: muM4TS.11: murine monoclonal antibody to PDGF-R β, variable regions SEQ ID NOS:10 and 12; epitope in fourth extracellular domain (antibody, V domains shown)
VL: METETLLLWVLLLWVPGSTGDIVLTQSPPSLAVSLGQRATISCRASESVDSYGNSFMHWYQQKPGQPPKLLIYRASNLESGIPARFSGGGSRTDFTLTINPVEADDVATYYCQQSNEDPPTFGGGTKLEIK
VH: MERHWIFLFLFSVTAGVHSQVQLQQSGAEVAKPGASVKMSCKASGYTFTNCWMHWVKQRPGQGLEWIGYINPTTGYSEYNQNFKDKATLTADKSSNTAYIQLSSLTSEDSAVYYCTSNYGHYDWFANWGQGTLVT
As for B1, the “blocking of 125I-PDGF BB binding to PDGF-R β” value in test [1] was “did not; also recorded: neither muM4TS.11 nor HuM4TS.11 were able to inhibit binding of PDGF BB to its receptor”. Moreover, in test [2] (0.1 μg antibody), the “binding to deletion proteins containing only first through third domains” value is given as “do not bind” and the “binding to protein D1-4” value is reported as “do bind to protein D1-4”. In addition, the “binding to protein D5 (fifth domain only)” value in test [2] (separate experiment) was “none of muM4TS.11 and HuM4TS.11, muM4TS.22 and HuM4TS.22 bound to it”. The “IC50 of inhibition of proliferation” value in test [3] is “about 0.5 μg/ml”.

(Values after US5882644A, “Monoclonal antibodies specific for the platelet derived growth factor β receptor and methods of use thereof” (Protein Design Labs, Inc., priority 1996, dated 1999).)
